# The nanobody polyreactivity screen of Harvey et al. (2022)
# Test: yeast display, Sf9 membrane polyspecificity reagent, FACS + sequencing; frameworks hold sequencing errors
# Procedure, shortened: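 Nanobodies from a synthetic yeast display library (Saccharomyces cerevisiae BJ5465), induced 36–48 hours with galactose, were stained 1 hour at 4 °C with 10% biotinylated, detergent-solubilized Sf9 membrane reagent, enriched on streptavidin microbeads, then FACS-sorted. Anti-HA (expression) and streptavidin (reagent binding) fluorescence set low and high (top ~1%) gates. Polyreactivity labels come from the gate of origin. Genes were colony-PCR amplified, MiSeq 2 × 250 sequenced and filtered by CDR length.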
row,Sequence,polyreactivity (PSR sort gate)
1,QVQLVESGGGLVKAGGSLRLSCSASGSTFRSNAMGWYRQAPGKERELVAGISSGGGTYYADSVKGRFTISRDNAKNTVYLQMNSLKPEDTAVYYCAKVVYFGWSVQYYYWGQGTQVTVSS,low polyreactivity
2,QVQLVESGGGLVKAGGSLRLTCAASGSIFRYYAMGWYRQAPGKERELVAAISGSGGSTYYADSVKGRFTISRDNAKNTVYLQMNSLKPEDTAVYYCARVRGCYDKMYYWGQGTQVTVSS,high polyreactivity
3,QVQLVESGGGLVKAGGSLSLICAASGFTFGVYAMGRYRQAPGKERELVAAIRRTGGSTYYADSVKGRFTISRDNAKNTVYLQMNSLKPEDTAVYYCAAHAISYQSRYRYRYGSVDYWGQGTQVTVSS,high polyreactivity
4,QVQLVESGGGLVKAGGSLSLSCAASGFTVYRYTMGWYRPAPGKEREVVARITYSGGSTYYADSVKVRFTISRDNAKNTVYLQLYCLKPVDSAVYYCNARSDFYSRYGYKYDYWGQGTQVTVSS,high polyreactivity
5,QVQLVESGGGLVLAGGSLRLICAGSGRIFYTNTMGWYRQAPWKGRELVAAIRSGTRTYYADSVKGRFTISRDNAKNTFYLLMNILKPEATAVYYCAAYYSYYGGDYWGQGTQVTVSS,low polyreactivity
6,QVQLVESGGGLVLAGGSLRLSCAASGRILGSYAMGWYRQAPGKERELVAGISWRGGRTSYADSVKGRFTISRDNAKNPVYLQMNSLKPEDTAVYYCATRSSSRKYGYWGQGTQVTVSS,high polyreactivity
7,QVQLVESGGGLVLAGGSLRLSCAASGRIYVFYAMGWYRQAPGKEREFVATISYSGDTTYYADSVKGRFTISRDNAKNTVYLQMNSLTPEDTAVYYCAADQVPSYYYVPLGYDSWGQGTQVTVSS,low polyreactivity
8,QVQLVESGGGLVLAGGSLRLSCAASGRTFELNALGWYRQAPGKERELVAAISWSGGSTYYADSVKGRFTISRDNAKNTVYLQMNSLKPEDTSVYYCAAQYQQGPFVKYYYWGQGPQVTVSS,high polyreactivity
9,QVQLVESGGGLVLAGGSLRLSCAASGSTFGDYAMGWYRQAPGNERELVAAISARGASTYYADSVKGRFTISRDNAKNTVYLQMNSLKPEDTAVYYCAARYVSSGRRFDYWGQGTQVTVSS,high polyreactivity
10,QVQLVESGGGLVLAGGSLRLSCAASGSTFTIYALGWYRQAPVKQRELVAAITSGGSTYADSVKRRFTISRDNAKNTVYLEMNSLKPEETAVDYCATVTFSHAQRTWYDYWGQGSQVTVSS,high polyreactivity
11,QVQLVESGGGLVLAGGSLRLSCAASGTIFGYYAMGWYRQAPGKDRELVAAITSDGDTYYADSVKGRFTISRDNAKNTVYLQMNSLKPEDTAVYYCNATYGGPYYIQYDYWGQGTQVTVSS,low polyreactivity
12,QVQLVESGGGLVLAGGSLSLSCAASGSIFNWYAMGWYRKAHGKERELVAAISWRGGSTYYADSVKGRFTISRDNAINSVYFQMNSLKPEDTAVYYCASDGGGDHMDYWGQGTQVSVSS,high polyreactivity
13,QVQLVESGGGLVNAGVSLLLSCAASGYIFVQYAMGWNRQAHVKERELVAAISKSGSSTYYADSVKGRFTISRDNAKNTVFLLINSLKPADSAVYYCAVVYTYVSGFTYGYWGQGTQVIVSS,low polyreactivity
14,QVQLVESGGGLVPAGASLRLSCAASGSTSYVYAMGWYRKAPGKERELVAAISGSGGRTYYADSVKGRFTISRDNAKNTVYLQMNSLKPEDTAVYYCNAMPRPSYPFDYWGQGTQVTVSS,high polyreactivity
15,QVQLVESGGGLVPAGGSLRLSCAASGFIFSRYDMGCYRQAPGKERELVAAIDWSGDSTYYADSVKGRFTISRDNAKNTVYFQMNSLKPEDTAVYYCAAGQDGDSDWGQGTQVTVSS,low polyreactivity
16,QVQLVESGGGLVPAGGSLRLSCAASGRIFVVYSMGWYRQAPGKERELVASISGGSTNYADSVKGRFTISRDNAKNTVYLQMNSLKPEDTAVYFCGMEYWGQGTQVTVSS,low polyreactivity
17,QVQLVESGGGLVPAGGSLRLSCAASGRTFFKNAMGWYRQAPGKERELVARISWNGGDSTYYADSVKGRFTISRDNAKNTVYLQMNSLKPEDTAVYSCAADTSYRPGGSRHGYGYWGQGTQVTVSS,low polyreactivity
18,QVQLVESGGGLVPAGGSLRLSCAASGRTFRYYGMGWYRQAPGTERELLAAISWRGGSTNYADSVKGRFTISRDNAKNTVYLQMNSLKREDTAVYYCAVGTVYLTYRGYEYWGQGTQVTVSS,high polyreactivity
19,QVQLVESGGGLVPAGGSLRLSCAASGRTFYSYGMGWYRQAPGKERELVASISSSTGSTYYADSVKGRFTISRDNAKNTVYLQMNSLKPEDTAVYYCAKRYSWTRRYDYWGQGTQVTVSS,high polyreactivity
20,QVQLVESGGGLVPAGGSLRLSCAASGRTVRRNAMGWYRHAPGKERELVADISNGDSTKYADSVKGRFTISRDNAKNTVYLQMNSVNPEDTAVYYCATEVSWHWYQQSVTRMDYWGQGTQVTVSS,low polyreactivity
21,QVQLVESGGGLVPAGGSLRLSCAASGSIFPVYAMGWYRQAPGKERELVASISTGGSTYYADSVKGRFTISRDNAKNTVYLQMNSLKPEDNAVYYCDATGWAYGYGYWGQGTQVTVSS,low polyreactivity
22,QVQLVESGGGLVPAGGSLRLSCAASGSTFAKYAMGWYRQAPGKERELVASIRLSGGSTYYADSVKGRFTISRDHAQNTVYLQMNSLKPEDTAVYYCNKQFATFYYGFHYYYWGQGTQVTVSS,low polyreactivity

row,Sequence,polyreactivity (PSR sort gate)
1,QVQLVESGGGLVPAGGSLRLSCAASGSTFEVNAMGWYRQAPGKERELVADITSGGSTNYADSVKGRFTISRDNAKNTVFLQMNSLKPEDTAVYFCARDDWFGFIRVQEMDYWGQGTQVTVSS,low polyreactivity
2,QVQLVESGGGLVPAGGSLRLSCAASGSTFNGYPMGWYRQAPGKEREFVATITFSDGSTYYADSVKGRFTISRDNAKNTVYLQMNSLKPEDTAVYYCNVDSRIGYDYWGQGTQVTVSS,low polyreactivity
3,QVQLVESGGGLVPAGGSLRLSCAASGSTFSDYAMGWYRQAPGKERELVASIDSGDSTNYADSVKGRFTISRDNAKNTVYLQMTSLKPEDTAVYFCAADYQNTGARYGYYYWGQGTQVTVSS,low polyreactivity
4,QVQLVESGGGLVPAGGSLRLSCAASGSTFVSKAMGWYRQAPGKERELLAAISTSGGSTYNADSVKGRVTISGDNAKNTVYLQMNSLKPEDTAVYYCAKLLAGGFRIWQDYDYWGQGTQVTVSS,low polyreactivity
5,QVQLVESGGGLVPAGGSLRLSCDASGRTFWFYAMGWYRQAQGKERELVASITSGGGTNYADSVKGRFTISRDNAKNTVYLQMNSLKPEDTAVYYCAADRAYGVLGNEGGYWGQGTQVTVSS,high polyreactivity
6,QVQLVESGGGLVPAGGSLRLSWAASGFIFGYNVMGWYRQAPGKVRELVAAISRGGSTNYADSVKGRFTISRDNAKKTVSGQMTSLKPEATAVYDCAARRYRPAAFDSWGQGTQVTVSS,high polyreactivity
7,QVQLVESGGGLVPAGGSLRLTCAASGSTFGDYAMGWYRQAPGKERELVAAINFSDGSTYYADSVKGRFTISRDNAKNTVYLQMNSLKPEDTAVYYCAAYTYYDGVYGFDYWGQGTQVTVSS,low polyreactivity
8,QVQLVESGGGLVQAAGSLRLICAASGSIFTRYTMGWYRQAPGKERELVAVISDSSGRTYYADSVKGRFTISRDNAKNTVYLQMNSLKPEDTAVYYCAAEYSDIYEYWGQGTQVTVSS,low polyreactivity
9,QVQLVESGGGLVQAAGSLRLSCAASGGTFGWYAKGWYRLAHGKEREFLPAIRYSDGNTYYADSVKRRFTISRDNAKNSVYLQMNSLKPEDSAVYYCAADYVYAYIDGEVAEFYYWGPGTQVTVSS,high polyreactivity
10,QVQLVESGGGLVQAAGSLRLSCAASGITFSRNGMGWYRQAPGKERELFAAISTSGDSTDYADSVKGRFTISRDNAKNTVYLQMNSLKPEDTAVYYCNRDFSLVVHYKFDYWGQGTQVTVSS,low polyreactivity
11,QVQLVESGGGLVQAAGSLRLSCAASGSIFGAYAMGWYRQAPGKERELVAAINYGGATTYYADSVKGRFTISRDNAKNTVYLQMNSLKPEDTAVYYCAADYLYAYGDVAVVYGWYAYYYWGQGTQVTVSS,low polyreactivity
12,QVQLVESGGGLVQAAGSLRLSCAASGYIFQYYAMGWYRQAPGKERELVAAITGGGSTKYADSVKGRFTISRDNAKNTVYLQMNSLKPEDTAVYYCAASLWYRISKYDYWGQGTQVTVSS,high polyreactivity
13,QVQLVESGGGLVQAAGSLRLSCAASVGTFTPNVMGWSRKAPGKERELVAAIDDSGSRTYYADSVKGRFTISRVNAKNTVYLQMNSLKPEDTAVYYCAVYWYGTFPMYYWGQGTQVTVSS,low polyreactivity
14,QVQLVESGGGLVQAAGSLRLSCAASVITFVKNAMGWYRQAPGKERELVARIRIGGSTSYADSVKGRFTISRDYAKNTFYLQLNSLKPEDTAVYYCARYAGRLSYRYEYWGQGTQVTVSS,high polyreactivity
15,QVQLVESGGGLVQAAGSLRLSSAPSVSSFRNKAMGWYRQAPGKERELVASISSSGDSTYADSVKGRFTISRDNAKNTVSLQMNSLKPEDTAVYYCARDYLSPYAVDYWGQGTQVTVSS,low polyreactivity
16,QVQLVESGGGLVQAARSHRVSCAASGSIFWGNVKGWYRQAPGNESELVAAINSGGSTYYADSVKGRFTISRDNAKNTVYLQMNSLIPEDTAVYYCAAAINRYRGTFNYWGQGTQVSVSS,high polyreactivity
17,QVQLVESGGGLVQAEGSLRLSCAASGFIFRYNAMGWYRQAPGKERELVAAITSGGSTNYADSVKGRFTISRDNAKNTVYLQMNSLKPEDTAVYYCNKYRPYGRIYHLAYGRDYWGQGTQVTVSS,high polyreactivity
18,QVQLVESGGGLVQAGAILRVSCAASGISLQYAMGCYRQAPGKERELVASISSRGTSTYYADSVKGRFTISRDNAKNTVYLQMNSLKPEDTAVYYCAARVRWWSPGGYWGQGTQVTVSS,high polyreactivity
19,QVQLVESGGGLVQAGASLRLRCAASGRTFYYKTMGWYRQAPGKERELVAAITRNGGSTYYADSVKGRFTISRDKAKNTVYLQMKSLKLEDTAVYSCGAEGPSHRLNVRQVKGSDSWGQGTQVSVSS,low polyreactivity
20,QVQLVESGGGLVQAGASLRLSCAASGFTFDSYAMGWYRQAPGKDRELVAVISATGAITYYADSVKGRFTISRDNAKNTVYLPMNSLKPEDTAVYYCAVQVSWSYYRYGYWGQGTQVTVSS,low polyreactivity
21,QVQLVESGGGLVQAGASLRLSCAASGIIFNVKAMGWYRQAPGKERELVAAITSGANTYYADSVKGRFTISRDNAKNTVYLQMNSLKPEDSAVYYCNKVGSNSVGPGYDYWGHGTQVTVSS,high polyreactivity
